How the values were obtained:
Experiment in all cases: cell-based or functional assay
[1] = target: HIV Env of primary isolate 6101 (HIV)
[2] = target: HIV Env of primary isolate DU422 (HIV)
[3] = target: HIV Env of primary isolate TV-1 (HIV)
[4] = target: HIV Env of primary isolate SF162 (HIV)
[5] = target: HIV Env of primary isolate DU123 (HIV)
[6] = target: HIV Env of primary isolate BG1168 (HIV)

Binder	neutralization titer of HIV primary isolate (lectin at 400 ug/ml) [1]	neutralization titer of HIV primary isolate (lectin at 400 ug/ml) [2]	neutralization titer of HIV primary isolate (lectin at 400 ug/ml) [3]	neutralization titer of HIV primary isolate (lectin at 400 ug/ml) [4]	neutralization titer of HIV primary isolate (lectin at 400 ug/ml) [5]	neutralization titer of HIV primary isolate (lectin at 400 ug/ml) [6]	neutralization titer of HIV primary isolate [1]	neutralization titer of HIV primary isolate [2]	neutralization titer of HIV primary isolate [3]	neutralization titer of HIV primary isolate [4]	neutralization titer of HIV primary isolate [5]	neutralization titer of HIV primary isolate [6]
galanthus nivalis lectin (protein, UniProt P30617 24-128, looked up) DNILYSGETLSTGEFLNYGSFVFIMQEDCNLVLYDVDKPIWATNTGGLSRSCFLSMQTDGNLVVYNPSNKPIWASNTGGQNGNYVCILQKDRNVVIYGTDRWATG	724 titer	> 43700 titer	> 43700 titer	22400 titer	> 43700 titer	< 20 titer						
urtica diotica (UDA) lectin (protein, UniProt P11218 24-112, looked up) QRCGSQGGGGTCPALWCCSIWGWCGDSEPYCGRTCENKCWSGERSDHRCGAAVGNPPCGQDRCCSVHGWCGGGNDYCSGSKCQYRCSSS							428 titer	468 titer	600 titer	467 titer	1580 titer	190 titer

— patent US20150050309A1
